Where a chain is given by its changes, count along the chain named. Like-named read-outs stand apart in the source and are kept apart here. Blank lines part the entries; values can stand above or below the binder they belong to.
Legend:
Experiment in all cases: cell-based or functional assay
[1] = biological target: T1, recombinant human TFPI (tissue factor pathway inhibitor) (human, UniProt P10646 29-304)
[2] = biological target: T1, recombinant human TFPI (tissue factor …); remark: listed apart in the source
[3] = biological target: T1, recombinant human TFPI (tissue factor …); remark: listed apart in the source
[4] = biological target: T1, recombinant human TFPI (tissue factor …); remark: listed apart in the source
[5] = biological target: T1, recombinant human TFPI (tissue factor …); remark: listed apart in the source
[6] = biological target: T1, recombinant human TFPI (tissue factor …); remark: listed apart in the source
[7] = biological target: T1, recombinant human TFPI (tissue factor …); remark: listed apart in the source
[8] = biological target: T1, recombinant human TFPI (tissue factor …); remark: listed apart in the source

B1: clone 16 (antibody, V domains shown)
VH: EVQLVESGGGLVKPGGSLRLSCAASGFTFSHYAMTWVRQAPGKGLEWVSTITTGGSHTYYADSVEGRFTISRDNAKNSLYLQMNSLRAEDTAVYYCARQDGNFLMDYWGQGTLVTVSS
VL: DVVMTQTPLSLPVTLGQPASISCKSSPSLLDIDGKTYLNWLQQRPGQSPKRLIYLVSKLDSGVPDRFTGSGSGTDFTLKISRVEAEDVGVYYCWQGTHFPFTFGQGTKVEIKR
effect of inhibiting TFPI, FXa activity assay, Ab 10 nM [1]: ~34%
effect of inhibiting TFPI, FXa activity assay, Ab 20 nM [1]: ~55%
FXa assay % of FXa alone, 2.5 nM Ab, 10 nM TFPI [2]: 7.3%
FXa assay % of FXa alone, 5 nM Ab, 10 nM TFPI [2]: 10.2%
FXa assay OD, 2.5 nM Ab, 10 nM TFPI [2]: 0.0865
FXa assay OD, 5 nM Ab, 10 nM TFPI [2]: 0.122
FXa assay OD, 10 nM Ab, 10 nM TFPI [2]: 0.405
FXa assay OD, 20 nM Ab, 10 nM TFPI [2]: 0.651

B2: clone 21 (antibody, V domains shown)
VH: B1 VH with H31S, T35N, T53K, H57Y, E65D
VL: B1 VL with I32S
FXa assay % of FXa alone, 2.5 nM Ab, 10 nM TFPI [2]: 5.9%
FXa assay % of FXa alone, 5 nM Ab, 10 nM TFPI [2]: 6%
FXa assay % of FXa alone, 10 nM Ab, 10 nM TFPI [2]: 6.5%
FXa assay % of FXa alone, 20 nM Ab, 10 nM TFPI [2]: 7.2%

Continued, values first:

FXa assay % of FXa alone, 2.5 nM Ab, 10 nM TFPI [2]: 6.9%
FXa assay % of FXa alone, 5 nM Ab, 10 nM TFPI [2]: 7.4%
FXa assay % of FXa alone, 10 nM Ab, 10 nM TFPI [2]: 10.4%
FXa assay % of FXa alone, 20 nM Ab, 10 nM TFPI [2]: 62.5%
FXa assay OD, 2.5 nM Ab, 10 nM TFPI [2]: 0.082
FXa assay OD, 10 nM Ab, 10 nM TFPI [2]: 0.124
FXa assay OD, 20 nM Ab, 10 nM TFPI [2]: 0.745
B3: clone 23 (antibody, V domains shown)
VH: B1 VH with T35N, H57Y, N102H
VL: B1 VL with F99L

A405, TF/FVIIa/FX complex assay, Ab 1.56 nM [3]: 0.149
A405, TF/FVIIa/FX complex assay, Ab 3.13 nM [3]: 0.172
A405, TF/FVIIa/FX complex assay, Ab 6.25 nM [3]: 0.195
A405, TF/FVIIa/FX complex assay, Ab 12.5 nM [3]: 0.33
A405, TF/FVIIa/FX complex assay, Ab 25 nM [3]: 0.908
A405, TF/FVIIa/FX complex assay, Ab 50 nM [3]: 0.938
A405, TF/FVIIa/FX complex assay, Ab 100 nM [3]: 0.947
FXa assay % of FXa alone, 2.5 nM Ab, 10 nM TFPI [4]: 8%
FXa assay % of FXa alone, 5 nM Ab, 10 nM TFPI [4]: 28.8%
FXa assay % of FXa alone, 10 nM Ab, 10 nM TFPI [4]: 63.5%
FXa assay % of FXa alone, 20 nM Ab, 10 nM TFPI [4]: 75.8%
FXa assay OD, 2.5 nM Ab, 10 nM TFPI [4]: 0.065
FXa assay OD, 5 nM Ab, 10 nM TFPI [4]: 0.234
FXa assay OD, 10 nM Ab, 10 nM TFPI [4]: 0.516
FXa assay OD, 20 nM Ab, 10 nM TFPI [4]: 0.616
% of Normalized, TF/FVIIa/FX complex assay, Ab 1.56 nM [5]: 16.3%
% of Normalized, TF/FVIIa/FX complex assay, Ab 3.13 nM [5]: 18.7%
% of Normalized, TF/FVIIa/FX complex assay, Ab 6.25 nM [5]: 21.3%
% of Normalized, TF/FVIIa/FX complex assay, Ab 12.5 nM [5]: 36.1%
% of Normalized, TF/FVIIa/FX complex assay, Ab 25 nM [5]: 99.2%
% of Normalized, TF/FVIIa/FX complex assay, Ab 50 nM [5]: 102%
% of Normalized, TF/FVIIa/FX complex assay, Ab 100 nM [5]: 104%
effect of inhibiting TFPI, FXa activity assay, Ab 10 nM [1]: ~67%
effect of inhibiting TFPI, FXa activity assay, Ab 20 nM [1]: ~79%
FXa assay % of FXa alone, 2.5 nM Ab, 10 nM TFPI [6]: 9.2%
FXa assay % of FXa alone, 5 nM Ab, 10 nM TFPI [6]: 41.9%
FXa assay OD, 2.5 nM Ab, 10 nM TFPI [6]: 0.0745
FXa assay OD, 5 nM Ab, 10 nM TFPI [6]: 0.338
FXa assay OD, 10 nM Ab, 10 nM TFPI [6]: 0.543
FXa assay OD, 20 nM Ab, 10 nM TFPI [6]: 0.637
% of Normalized, TF/FVIIa/FX complex assay, Ab 1.56 nM [7]: 16.1%
% of Normalized, TF/FVIIa/FX complex assay, Ab 3.13 nM [7]: 18.5%
% of Normalized, TF/FVIIa/FX complex assay, Ab 6.25 nM [7]: 20.5%
% of Normalized, TF/FVIIa/FX complex assay, Ab 12.5 nM [7]: 30.3%
% of Normalized, TF/FVIIa/FX complex assay, Ab 25 nM [7]: 95.8%
% of Normalized, TF/FVIIa/FX complex assay, Ab 50 nM [7]: 93.7%
% of Normalized, TF/FVIIa/FX complex assay, Ab 100 nM [7]: 95%
A405, TF/FVIIa/FX complex assay, Ab 1.56 nM [8]: 0.154
A405, TF/FVIIa/FX complex assay, Ab 3.13 nM [8]: 0.177
A405, TF/FVIIa/FX complex assay, Ab 6.25 nM [8]: 0.196
A405, TF/FVIIa/FX complex assay, Ab 12.5 nM [8]: 0.29
A405, TF/FVIIa/FX complex assay, Ab 25 nM [8]: 0.914
A405, TF/FVIIa/FX complex assay, Ab 50 nM [8]: 0.895
A405, TF/FVIIa/FX complex assay, Ab 100 nM [8]: 0.907
B4: clone A67 (antibody, V domains shown)
VH: B1 VH with H31S, T35N, H57Y
VL: B1 VL with P27Q, I32L

— patent publication US20180030151A1 (MOGAM INSTITUTE FOR BIOMEDICAL RESEARCH, published 2018)
